System: HEK293 cells
Format: cell-based, human
Details: circular RNA encoding Gluc with the listed IRES (UTR truncated to 675 nt) transfected into HEK293 cells; supernatant after 24 hours

| Molecule | Expression (luminescence from secreted Gluc protein) |
| --- | --- |
| Yak enterovirus (nucleic acid, listed as Enterovirus sp.) DNA: CTCCGGCACAGCCGCACCAGTGCACTGGTACGCTAGTACCTTTTCACGGGGTAGTCGGTATCCCCCCCCGTAACTTAGAAGCATGTAACAAACCGACCAATAGGTGCGCGGCAGCCAGCTGCGTTGCGGTCAAGCACTTCTGTCTCCCCGGTCCGCAAGGATCGTTACCCGCCCACTCCACTACGAGGAGCCTAGTAACTGGCCAAGTGATTGCGGAGTTGCGTTCAGCCACAACCCCAGTGGTAGCTCTGGAAGATGGGGCTCGCACATCCCCCGTGGTAACACGGTTGCTTGCCCGCGTGTGCTTCCGGGTTCAGTCTCCGACTGTTCACTTCAACATCACGCAACCAGCCAAGAGCCGATTGTGCTGGAGTGGTCTTCCTCCGGGGCCGTGAATGCTGCTAATCCTAACCTCCGAGCGTGTGCGCACAATCCAGTGTTGCTACGTCGTAACGCGTAAGTTGGAGGCGGAACAGACTACTTTCGGCACCCCGTGTTTCCTTTATTTTATTCTTATTTTATGGTGACAATTGCAGAGATTTGTGATATTGCGACTTTACCGTTAAACATAGCACTGCATTACCTGGTTGCATTCCACAAAACTTCAGAGATTCCTAGTTCCTACATTGACCTACTTGTTTATTTGAATCTTAAATACAAACTTGAGCAAGTGAA | 6.19E+06 |
| Wobbly possum disease virus (nucleic acid, source: /note="Description of Unknown: Wobbly possum disease virus sequence") DNA: CGGCTGTGAGTGCTTAGCATATGCTAGAGTACTACAGCCGGGTGTTGGAGTCATATGCACTGGTTGCCTGTATAATAGTCGGGATCTGTCTGACCTACATTATCTTTGGGAGTTGCTTATCACGACAATTCTCGAAGTGTCTGTCGACAGCTTACCCCCGATTCGACAAGGCCCCTTGTCCACCGCAGACCTATCGATTTTCAACGAGAACACTATCAGAGGTTTAAATTTAAAACTCACCAACA | 2.60E+05 |
| Apodemus agrarius picornavirus strain Longquan-Aa118 (nucleic acid, source: /note="Description of Unknown: Apodemus agrarius picornavirus strain Longquan-Aa118 sequence") DNA: TTACTCAGCGTAACTACTCCGGGTTACGTGATGAAGAAGAGGCTACGGAGATTCTCGGGCTACGGCCCTGGAGCCACTCCGGCTCCTAAAGATTTAGAAGTTTGAGCACACCCGCCCACTAGGGCCCCCCATCCAGGGGGGCAACGGGCAAGCACTTCTGTTTCCCCGGTATGATCTGATAGGCTGTAACCACGGCTGAAACAGAGATTATCGTTATCCGCTTCACTACTTCGAGAAGCCTAGTAATGATGGGTGAAATTGAATCCGTTGATCCGGTGTCTCCCCCACACCAGAAACTCATGATGAGGGTTGCCATCCCGGCTACGGCGACGTAGCGGGCATCCCTGCGCTGGCATGAGGCCTCTTAGGAGGACGGATGATATGGATCTTGTCGTGAAGAGCCTATTGAGCTAGTGTCGACTCCTCCGCCCCCGTGAATGCGGCTAATCCTAACCCCGGAGCAGGTGGGTCCAATCCAGGGCCTGGCCTGTCGTAATGCGTAAGTCTGGGACGGAACCGACTACTTTCGGGAAGGCGTGTTTCCATTTGTTCATTATTTGTGTGTTTATGGTGACAACTCTGGGTAAACGTTCTATTGCGTTTATTGAGAGATTCCCAACAATTGAACAAACGAGAACTACCTGTTTTATTAAATTTACACAGAGAAGAATTACA | 1.90E+08 |
| Human enterovirus 109 (nucleic acid, listed as Enterovirus sp.) DNA: TTTAAAACAGCCTGGGGGTTGTTCCCACCCCCAGGGCCCACTGGGCGTTAGTACTCTGGTATCGCGGTACCTTAGTATGCCTGTTTTATGTCTCCTTTCCCCCGCAACTTTAGAAGTAATCAAGTTATGGCTCAACAGTCGCCACACCCCCAGTGTGGTTCCGAGCAAGCACTTCTGTTCCCCGGTTGCGTCTTATATGCTGTGTGAACGGCAGAAAGGGACAATATCGTTATCCGCTCAACTACTACGGGAAGCCTAGTACCACCATGGATTGACCTGAAAGTTGCGTTCAGCGCACCCCCAGCGCAGCTCAGGCCGATGAGGCTCCGAATACCCCACGGGCGACCGTGTCGGAGCCTGCGTTGGCGGCCTGCCCACGTTGCAAAACGTGGGACGCTCATTTCATGACATGGTGCGAAGAGCCTACTGTGCTAGTTGAGAGTCCTCCGGCCCCTGAATGTGGATAATCCTAACCACTGAACCTACGGGCGCAAACCAGCGTCTGGTAGGCCGTAACGCGCAAGTCGGTGGCGGAACCAACTACTTTGGGTGTCCGTGTTTCCTTTTATCTTTTTGAATGTTTATGGTGACAATTGTTGTGTACAGTTGTTACCATAGTTTGCATTCAGAAATAAACCTAACACTTTCCAATTATTTGTTACA | 4.92E+05 |
| Avian orthoreovirus segment S1 (nucleic acid, listed as Avian orthoreovirus) DNA: GCTTTTTCAATCCCTTGTGTCGATGTTCCCGTATGTCATCTGGTTCATGTAACGGTGCAACTTCTATTTTTGGTAACGTTCACTGTCAGGCAGCGCAAAACTCGGCGGGTGGTGATCTTCAAGCGACTTCCTCTCTTGTTGCTTATTGGCCCTACTTGGCTGCGGGCGGTGGTCTGCTCGTTGTTATTATTATAATTGTTGGCGCTGTTTGTTGTTGCAAGGCTAAGGTTAAAGCGGACGCAGCCCGAAACGTTTTCTACCGAGAGCTGTTCGCACTTAATTCGGGTAAAAGTGATGCAGGACCTCCGATTTACCAGGTTTAGTGTACGACGATTTGAGTTTTCACCTTTCGTCTTAGAGGAGTGCACTACTCCATCTTTCACGACTATAACTAATACCGATCCGGCTCTCTACTTTAACATTGAGTTTCCGTCAAGTCATCGTCTCTCCCCCTTCATTCCAGAACTGTTGTCTCAGCCTTGTACCGTTCACGTTTCATTGATTCGGAGATTCGCTCTCTGTGCAACCTTATCTAGTATTTGTGAATACGACTGTGCGCTACTGCCATCCATCAACGCTATTACGACGATCCCTACACCAGGTGCGTCATCATCTCTGATTGTTCATTGGG | 4.37E+05 |
| Picornavirales sp. isolate RtMruf-Pico V (nucleic acid, lipid formulation; source: /note="Description of Unknown: Picornavirales sp. isolate RtMruf-PicoV sequence") DNA: TTTGCTCAGCGTAACTTCTCCGGGTTACGTGGAGACCAAAAGGCTACGGAGACTCGGGCTACGGCCCTGGAGCACCTAGGTGCTCCTAAAGACGTTAGAAGTTGTACAAACTCGCCCAATAGGGCCCCCCAACCAGGGGGGTAGCGGGCAAGCACTTCTGTTTCCCCGGTATGATCTCATAGGCTGTACCCACGGCTGAAAGAGAGATTATCGTTACCCGCCTCACTACTTCGAGAAGCCCAGTAATGGTTCATGAAGTTGATCTCGTTGACCCGGTGTTTCCCCCACACCAGAAACCTGTGATGGGGGTGGTCATCCCGGTCATGGCGACATGACGGACCTCCCCGCGCCGGCACAGGGCCTCTTCGGAGGACGAGTGACATGGATTCAACCGTGAAGAGCCTATTGAGCTAGTGTTGATTCCTCCGCCCCCGTGAATGCGGCTAATCCCAACTCCGGAGCAGGCGGGCCCAAACCAGGGTCTGGCCTGTCGTAACGCGAAAGTCTGGAGCGGAACCGACTACTTTCGGGAAGGCGTGTTTCCTTTTGTTCCTTTTATCAAGTTTTATGGTGACAACTCCTGGTAGACGTTTTATTGCGTTTATTGAGAGATTTCCAACAATTGAACAGACTAGAACCACTTGTTTTATCAAACCCTCACAGAATAAGATAACA | 2.26E+08 |
| Human enterovirus C105 (nucleic acid, listed as Enterovirus sp.) DNA: CCCCTAGGATCCACTGGATGTCAGTACACTGGTATCGTGGTACCTTTGTACGCCTGTTTTATACCCCCTTCCCCGCAACTTTAGAAGCATCAAAAGCACCGCTCAATAGTCACCACACCCCCAGTGTGGTTTCGAGCAAGCACTTCTGTTTTCCCGGTTGCGTCCCATATGCTGTGCAAACGGCAAAAAGGGACAATATCGTTACCCGCTTGTATACTACGGGAAACCTAGTACCACCATTGATTGTGTTGAGAGTTGCGCTCATCACCTTTCCCCGGTGTAGCTCAGGCCGATGAGGCTCAGAATCCCCCACAGGTGACTGTGTCTGAGCCTGCGTTGGCGGCCTGCCCTCGCCTTATGGCGTGGGACGCTTGATACATGACATGGTGCGAAGAGTCTACTGTGCTATGCAAGAGTCCTCCGGCCCCTGAATGTGGCTAATCCTAACCACTGATCCCACGCACGCAAACCAGTGTGTAGTGGGTCGTAACGCGCAAGTCGGTGGCGGAACCAACTACTTTGGGTGACCGTGTTTCCTTTATTACTTATTGAATGTTTATGGTGACAATTGTTTGATTCAGTTGTTGCCATTCTCTACATTCATTTACCCAGCATCAAACCAATTGAACTGTTACA | 5.49E+05 |
| Sclerotinia sclerotiorum dsRNA mycovirus-L (nucleic acid, source: /note="Description of Unknown: Sclerotinia sclerotiorum dsRNA mycovirus-L sequence") DNA: TTGAATTAATCTTTTACGTTTACGCGCATAAAATCAGGACACATCTCTTGTATACTTTAGTATATCAATGATGTTTTTGTTTTATGCGATTAATCGTAAGAGAACTTCTTTCCATCCGCCTGTATGGGCGGGATAATAAGTTCACCGCCTTGGTCGAGGCGCAAACTTGTATGTGCAAAGGTGAGCTATATGCTCGAAATAGTCGTAACTAACACACAGCCACTACCTGTAGAGCTCTATTGATCCGGAATCCTTTAGTGGGAATGCAGAGCTCACACCGGACCTGCGGGTATCTTCGGCGTTAGGGACTTCTGTTTCAGCCTTGAATCATTTACCTTTATACCTTCTCTGAGGCGCCTGGGCCGGGCGCGATATTAAGTACAAGTCAAGGACATCGCGGGTAGTGGTCTAATCAGCCGCTAGTCCTGCTGGAGAGTTCCAACTTAGTTGGGTGTGGTGCATACTAGCTGGATAGAGTAGGTATGTATTGCTAACGTATGCCGGAGGCTATCCGTCCTCGGTAGAACGTGCCGAGGAGTAGTCTCTGCAGACCCCCGAACGCGTGGGGTCTTTACTTAAATGTAGGCGGAGGGAGCGCTCGTAGGTGGAACGACTGCCTCCCAGTCGAATGCAAGATTTTGCACGCGGACCAGTCTGCCCGGCAATTCCCGGGTG | 1.69E+05 |

Reference: patent US20240245805A1 (Orna Therapeutics, Inc., priority 2020, published 2024)
